Measured values as given in article PMC2064084.

Target: GST–tubulin tails (ending in either Tyr or Glu)
Experiment: pull-down

B1: E442Q Spastin (enzyme)
chain: ESGAVPKRKDPLTHTSNSLPRSKTVMKTGSAGLSGHHRAPSYSGLSMVSGVKQGSGPAPTTHKGTPKTNRTNKPSTPTTATRKKKDLKNFRNVDSNLANLIMNEIVDNGTAVKFDDIAGQDLAKQALQEIVILPSLRPELFTGLRAPARGLLLFGPPGNGKTMLAKAVAAESNATFFNISAASLTSKYVGEGEKLVRALFAVARELQPSIIFIDQVDSLLCERREGEHDASRRLKTEFLIEFDGVQSAGDDRVLVMGATNRPQELDEAVLRRFIKRVYVSLPNEETRLLLLKNLLCKQGSPLTQKELAQLARMTDGYSGSDLTALAKDAALGPIRELKPEQVKNMSASEMRNIRLSDFTESLKKIKRSVSPQTLEAYIRWNKDFGDTTV
percent of the Spastin bound: 25 to 33%
